# Measurements reported in the DeepSol protein solubility set.
# Test: soluble on expression in E. coli; label from the status in PepcDB or PDB records
row,Sequence,soluble on expression in E. coli
1,MKLTIHEIAQVVGAKNDISIFEDTQLEKAEFDSRLIGTGDLFVPLKGARDGHDFIETAFENGAAVTLSEKEVSNHPYILVDDVLTAFQSLASYYLEKTTVDVFAVTGSNGKTTTKDMLAHLLSTRYKTYKTQGNYNNEIGLPYTVLHMPEGTEKLVLEMGQDHLGDIHLLSELARPKTAIVTLVGEAHLAFFKDRSEIAKGKMQIADGMASGSLLLAPADPIVEDYLPIDKKVVRFGQGAELEITDLVERKDSLTFKANFLEQALDLPVTGKYNATNAMIASYVALQEGVSEEQIRLAFQHLELTRNRTEWKKAANGADILSDVYNANPTAMKLILETFSAIPANEGGKKIAVLADMKELGDQSVQLHNQMILSLSPDVLDIVIFYGEDIAQLAQLASQMFPIGHVYYFKKTEDQDQFEDLVKQVKESLGAHDQILLKGSNSMNLAKLVESLEN,soluble
2,MSLAPRDLIDIDRIFMEPAVADYPRGREILSRFPNAERIAVPSHWNIPELHGNEGSVEDWVRIKRSTLVLGVKKGLAMRPNGRSAHFIAPSTSNGCAMACAYCYVPRRKGFSNPISLFVNVEAVSAAIARHAAKQGPLPEPDQIDEAAWVYDLGENGDLSVDAMICDTVRDLVGLFRTLPNAKGSFATKAVNRDLLAYDPQGRTRIRFSLMPAPIARVVDVRTAPIRERIAAIDDFVAAGYEVHVNFSPVILYEGWEADWAELFAEIDGSISDAAKAQLKCEIIMLTHNAGLHEVNLGWHPKAEALLWRPDIQETKRSEGGGDNLRYRTGEGHHHHHH,not soluble
3,MDSGRLAVIALGGNAIAGPGMDVSVESQTAAVKRASSIIADVLADGWRSVITHGNGPQVGYLSEAFEALPPERPRQPLYIATAMTQAWIGLLLKHSLEEELRRRGLNVLVPVVISRVLVDVSDPSFNNPSKPVGPIYGREEAEELSRRYGWVFKRDPRGGFRRVVPSPRPVSIVDRDLIAEASAESPAVVALGGGGVPVVERPGGVLEPVEAVVDKDLASSLLATQLNADLLVILTDVPGVAVNYGREGERWLRRAAASELKKYLREGHFPPGSMGPKVEAAISFVERTGKPAVIGSLEEARQVLSLQAGTVVMLG,soluble
4,MREVEPLAERLRPRSLDEVLGQPHLTGPQGLLRRMLEAGRLSSMVLFGPPGTGKTTLARLLAEGVGRPFLRLSAVEAGLKEVRQAVEEARAKGGLVLFLDEVHRFNKAQQDALLPHLESGLLTLIGATAENPAFALVPALRSRLRFFPLRPLEEADLLALLRRALEDPRGLPGTPYEEEALRVLAQAAGGDARFALNTLELAASFGRVDLKSVREALGAERFGMDREGDRFYDLVSALHKSLRGSHVDAALYYLARLLQGGADPRYLARRLIRVAVEDVGLADPLALRLAVAAKEAYEALGSPEGELALVEAAVYLALAPKSNSLYAAWKKAQEAAKAHPEAEVPLNLRNAPTGLARALGHGEGYAYYHEDKEGSFAQRYLPEGLEGLTLFEATGEGWEERVRERLKALRERFQTARRRRG,soluble
5,MGERGVEMRLRIRFESAECEVELYEEWAPETVRAIADALPIKSTANRWGDEIYFTTQVAVEKEENSKDVVELGDVAYWIPGKAICLFFGKTPISDDKIRPASAVNVIGRIVNSMEGLKGVADGESVVVERA,not soluble
6,MNTQYLQYVREQLMVATADLSGETKGQLLAWLENAQFDTKNYPRKKQRIWDEETESWITLNNPPIPGKQSLAKGSAIPLVKPVEYSTASWRRAVLSLDEHYKAWLLWNYSENTCWEHQVEITQWGWSAFAAQLDGKKMAGKTQERLRALIWLAAQDVKSELAGREVYQYKELAGLVGVSEKNWSETFTRHWLTMRAIFLRLDQASLLSVSESRSEQVAFNLYALN,not soluble
7,DTVANASGPLMVEIVKTPGSALGISLTTTSLRNKSVITIDRIKPASVVDRSGALHPGDHILSIDGTSMEHCSLLEATKLLASISEKVRLEILPVPQSQRPLRPS,soluble
8,GPGSMLRRTDRCGQRKVEKLLVANRGEIACRVFRTCREMHIRTVALFCEAERNAKHVVEADEAVCIGPPPAVNSYLRGDHIISVAKQLNVDAIHPGYGFLSENADFAEAVTRSGIEFIGPPASAISLMGSKSESKRIMEAAGVPVVPGYYGENQNVSFLAEEANRVGFPILIKAVSGGGGKGMKIVERPEDFAFMLESAKREAANFFKDDRVILERYVKRPRHIECQIFFDKHGRGVFFFERDCSVQRRYQKVLEEAPAPHLSMEMRQRIGEVALQAAKAVGYVGAGTVEFIFDTSTGDFYFMEMNTRLQVEHPVTEEVCRIKGAPLDLVKLQIKTAMGKPLTFSQEDVALVGSCIEARVYAESPERGFLPESGPLTFIREPFQGVRGPTRTRLDTGFCEGDNVLIHYDPMLAKVISWGRNREDALKGLRQALGEYKVAGINTNIEFLKRCCEAPEFARGGVTTNFISEHEKQLLNAPAVTPKVAAMAATAWLLNRCDNWRGAFRLNGDTSATVHFYIDNRPVEVRLHTEGANYHKIFFSVWDHEGSFAVGSGPVTSKHRDQRSIVNGFTFLFENGMRHTVLAVATEGDVTIIGSFGLHQIRLLPLTDGFGDASMAGGTSAKIVSPMPGKVSKFLVNSGDFVEKGQALMIVEAMKMEHPVKALQDGQVSFLVKEGEVVGSDHVLATVVQKE,not soluble
9,SDPVVLSYMDSLLRQSDVSLLDPPSWLNDHIIGFAFEYFANSQFHDCSDHVSFISPEVTQFIKCTSNPAEIAMFLEPLDLPNKRVVFLAINDNSNQAAGGTHWSLLVYLQDKNSFFHYDSHSRSNSVHAKQVAEKLEAFLGRKGDKLAFVEEKAPAQQNSYDCGMYVICNTEALCQNFFRQQTESLLQLLTPAYITKKRGEWKDLIATLAKK,soluble
10,PEFMVTTEPALADLQEQLYNGNEKSQLAAMSTLSTAGTEGYHLLQEFLKDSATFSPPPAPWIRGQAYRLLFHSPEASVQAFLQQHYPQGVIPLRSDRGVDYQELAKLFVAEKFEAADRLTTQKLCELAGPLAQKRRWLYFTEVEQLPIPDLQTIDQLWLAFSLGRFGYSVQRQLWLGCGQNWDRLWEKIGWRQGKRWPRYPNEFIWDLSAPRGHLPLTNQLRGVQVLNALLNHPAWTA,soluble
11,SASATAPAAAVPTLASPLEQLRHLAEELRLLLPRVRVGEAQETTEEFNREMFWRRLNEAAVTVSREATTLTIVFSQLPLPSPQETQKFCEQVHAAIKAFIAVYYLLPKDQGITLRKLVRGATLDIVDGMAQLMEVLSVTPTQSPENNDLISYNSVWVACQQMPQIPRDNKAAALLMLTKNVDFVKDAHEEMEQAVEECDPYSGLLNDTEENNSDNHNHEDDVLGFPSNQDLYWSEDDQELIIPCLALVRASKACLKKIRMLVAENGKKDQVAQLDDIVDISDEISPSVDDLALSIYPPMCHLTVRINSAKLVSVLKKALEITKASHVTPQPEDSWIPLLINAIDHCMNRIKELTQSELEL,soluble
12,MSLTNEFEILKPGKLLLASANLLDPNFKRTVLLMCEHNEEGSIGFILNKPMEFKVCEAISGFDEIDEPLHMGGPVQVDTVHVLHTRGDVIDGAVEVIPGLFWGGDKEQLSYLINTGVIKASEVRFFLGYAGWSAGQLEAEFEEGSWYTADASSEQVFTDEYERMWSRSVRSKGGEYCYVANSPELPGMNEGHHHHHH,soluble
13,MRILYFDCFAGASGDMILGALLDLGIDVGIFKRELAGLNLDGFDIAVEKKVINSIAVTDVNVIVKEECNHHTGHHHHCERNLADIEKIIDESSLKDNVKRLSKKIFSEIARAEAKVHNKSIEDVHFHEVGAIDSIVDIVGTAICLDLLKVDKIYSSPMHDGTGFIECQHGKLPVPVPAVLEMLKESNIPYITEDVNTELLTPTGLGIIKCVASKFGPMPPMTIEKVGYGAGKRQTGRFNALRCILGNAKEKEKIDDEICMLETNIDDMNPEILGYVMNRLFENGALDVFYTPVYMKKNRPGVLLTVLTDKEHEEKLVDIILTETTTLGIRKTTAQRYVLEREIKHVNTEFGKIRVKESSFGDYKKYSPEFEDCKKVAQELKIPLSKVYDAVNKAILVFEERNENALQ,soluble
14,MGAAAAPEVNMELVGHFGGTTDAVDVAGNYAYVGQGQDFLILDITNPSSPVLVSKIMTEGFVRDIKVSRNYAYVADDDNGLVIVDISNPSSPTLKGSYNIPGYTYCITVSGNYAYVADNDGLVIVDISNPSDPILKGRYAGPTGDVAVYGNYAYVADWGNGLMIVDISNPSSPVLKGSYDTAGDIYGVSISGNYAYVADGDTGLVIVDISNPSSPTLKGNYNTAGIACDVSVLGNYAYVADNDNGLVIVDISDPSSPVLKGNGSTTGYAHGIEVSGNYAYVANSNTGLVIVDISNPSSPTLKGSCDTIVRAKSIAVSGNYAYIADWDNGLVIVDISNPSSPFLKGSCDTPRSAQGVAVSGNYAYVADDDGLVIVDISNPSFPILNKSYNTGGWAQGITVSGNYAYVIDMANGIFIVDISNPSSPILEGMYDTSPIIIENYDYTGSIWSVSVSGNYAYVADEGNGLLIVDISNPSSPILKGSYDTAGLAYDVAVSGNYAYVADSKNGLAIIDISNPSSPILVGNYNTSGYAECVSISGNYAYVAVDDSLVVVDISNPSSPILKGLYAGSAGDIAVSGNYVYASEGVNGLVILKANPESAFTVADFSSNITSGYAPLSIQFNDHSQNATSWNWDFGDGYNSTNQNPIHTYSSAGTYTVNLTVINENRTASKVAKIFVLNTSLEHHHHHH,not soluble
15,MNVMLSKNYMMEKYNMSTTVGLPQFSHIKIEHFKSHLDALLKNHLEEIDRLLKENHHYTWDNLIYPLDSLADELERFWSPFAHMHAVMDSETIRESYEACLPLLSAYDAAIGHNQDLYEAIKSIDQHSLNPAQKKIIADSIQDFEL,not soluble
16,MTNWLIAYQGEPGAYSEIAALRFGEPLPCESFDDVFSAVTEQKADYAVIPIENSLGGSIHQNYDLLLRRPVVILAETFVKVEHCLLGLPGASVETATKAMSHPQALVQCHNFFATHPQIRAEAAYDTAGSAKMVAESRDKSALAIASKRAGELYGLDILKENLADEEWNITRFFCIAHENNPDISHLKVRPDVARQKTSIVFALPNEQGSLFRALATFALRGIDLTKIESRPSRKKAFEYLFYADFIGHREDQNVHNALENLREFATMVKVLGSYGVVNP,soluble
17,PPFTGDERASIQRACEAGVEKIIVPATEAAHFPRVLALAARFPSLYAALGLHPIVIERHADDDSDKLQQALAQQQNVVAVGEIGLDLYRDDPQFARQERFLDAQLQLAKRYDLPVILHSRRTHDKLAMHLKRQDLPRTGVVHGFAGSLQQAERFVRLGYKIGVGGTITYPRASKTRDVMARLPLDALLLETDAPDMPLKGFQGQPNRPEQAARVFDALCELRPE,not soluble
18,MGHHHHHHSHMKPLIWTWSDVEGQRPALLICTAAAGPTQGVKGYGKPFEPRSVKNIHSTPAYPDATMHRQLLAPVEGRMAETLNQKLHVANVLEDDPGYLPHVYSEEGECGGAPSLSSLASLEQELQPDLLDSLGSKATPFEEIYSESGVPS,not soluble
19,FESGLDLSDAEPDAGEATAYASKDLEEQLRSVSSVDELMTVLYPEYWKMYKCQLRKGGWQHNREQANLNSRTEETIKFAAAHYNTEILKSIDNEWRKTQCMPREVCIDVGKEFGVATNTFFKPPCVSVYRCGGCCNSEGLQCMNTSTSYLSKTLFEITVPLSQGPKPVTISFANHTSCRCMSKLDVYRQVHSIIRRSLPATLPQCQAANKTCPTNYMWNNHICRCLAQEDFMFSSDAGDDSTDGFHDICGPNKELDEETCQCVCRAGLRPASCGPHKELDRNSCQCVCKNKLFPSQCGANREFDENTCQCVCKRTCPRNQPLNPGKCACECTESPQKCLLKGKKFHHQTCSCYRRPCTNRQKACEPGFSYSEEVCRCVPSYWKRPQMS,not soluble
20,SLFARITFYPSLFYNVMMEKITARHWYDRIDENVILGALPFRSVAQEMVQKENIKAVVSMNEDYELWAFSNNKARWAKLGVEFLQLETTDIFESPCQEKLWKGVNFMNRFLPANDRMALLPAAPGELAEPGTIYVHSKAGRTRSATLVGCYLIMKNGWSPEQAVEHMRQCRPHILLRSKQWEALRLFHQTKCPPPK,soluble
